Target: T1, IL10Rα/IL2Rγ receptor (human) (UniProt Q13651)
T1 sequence (looked up) 1: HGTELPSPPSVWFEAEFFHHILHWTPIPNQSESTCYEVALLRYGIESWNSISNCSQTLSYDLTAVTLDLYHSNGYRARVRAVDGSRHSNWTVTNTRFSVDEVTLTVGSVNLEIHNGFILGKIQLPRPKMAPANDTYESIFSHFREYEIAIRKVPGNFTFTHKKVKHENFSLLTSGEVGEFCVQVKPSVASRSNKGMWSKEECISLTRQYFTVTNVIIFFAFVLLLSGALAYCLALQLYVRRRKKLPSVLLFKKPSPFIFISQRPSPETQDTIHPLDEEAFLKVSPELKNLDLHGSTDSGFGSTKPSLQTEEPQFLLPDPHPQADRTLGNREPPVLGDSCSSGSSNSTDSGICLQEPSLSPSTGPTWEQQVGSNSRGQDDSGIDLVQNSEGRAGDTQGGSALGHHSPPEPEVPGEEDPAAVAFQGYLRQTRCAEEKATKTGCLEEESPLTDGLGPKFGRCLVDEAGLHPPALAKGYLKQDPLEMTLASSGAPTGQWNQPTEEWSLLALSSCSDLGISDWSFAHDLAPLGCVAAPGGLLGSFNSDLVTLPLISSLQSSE
T1 sequence (looked up) 2: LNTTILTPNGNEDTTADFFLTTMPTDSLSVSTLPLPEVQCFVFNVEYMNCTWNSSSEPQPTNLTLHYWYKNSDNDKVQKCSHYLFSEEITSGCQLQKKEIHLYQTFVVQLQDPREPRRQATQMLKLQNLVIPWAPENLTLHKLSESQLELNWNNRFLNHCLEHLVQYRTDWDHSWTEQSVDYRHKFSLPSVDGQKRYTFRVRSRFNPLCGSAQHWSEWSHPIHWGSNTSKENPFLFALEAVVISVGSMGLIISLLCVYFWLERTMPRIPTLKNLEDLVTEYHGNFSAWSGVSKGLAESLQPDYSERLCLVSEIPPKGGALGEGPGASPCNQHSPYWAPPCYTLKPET
Test: cell-based or functional assay

B1: hIL10Ra_VHH14 - hIL2Rg_VHH19, linker GGGS, tag Fc (bispecific antibody, not shown: a dimerising Fc or GST)
chain: QVQLQESGGGSVQAGGSLRLSCGASGYTYSSYCMGWFRQVPGKEREGVAVIDSDGSTSYADSVKGRFTISKDNGKNTLYLQMNSLKPEDTAMYYCAADLGHYRPPCGVLYLGMDYWGKGTQVTVSSGGGSQVQLQESGGGSVQAGGSLRLSCTASGFTFDDREMNWYRQAPGNECELVSTISSDGSTYYADSVKGRFTISQDNAKNTVYLQMDSVKPEDTAVYYCAADFMIAIQAPGAGCWGQGTQVTVSS
- Granzyme A secretion, CD8 T cells, at 0 µM: 25200 pg/mL
- Granzyme A secretion, CD8 T cells, at 0.0001 µM: 22100 pg/mL
- Granzyme A secretion, CD8 T cells, at 0.001 µM: 25900 pg/mL
- Granzyme A secretion, CD8 T cells, at 0.01 µM: 27600 pg/mL
- Granzyme A secretion, CD8 T cells, at 0.1 µM: 30000 pg/mL
- Granzyme A secretion, CD8 T cells, at 1 µM: 29800 pg/mL
- Granzyme A secretion, CD8 T cells, at 10 µM: 28500 pg/mL
- Granzyme A secretion, CD8 T cells, at 100 µM: 25700 pg/mL
- Granzyme B secretion, CD8 T cells, at 0 µM: 77700 pg/mL
- Granzyme B secretion, CD8 T cells, at 0.0001 µM: 54500 pg/mL
- Granzyme B secretion, CD8 T cells, at 0.001 µM: 60900 pg/mL
- Granzyme B secretion, CD8 T cells, at 0.01 µM: 79000 pg/mL
- Granzyme B secretion, CD8 T cells, at 0.1 µM: 108000 pg/mL
- Granzyme B secretion, CD8 T cells, at 1 µM: 134000 pg/mL
- Granzyme B secretion, CD8 T cells, at 10 µM: 151000 pg/mL
- Granzyme B secretion, CD8 T cells, at 100 µM: 93300 pg/mL
- IFNγ secretion, CD8 T cells, at 0 µM: 122000 pg/mL
- IFNγ secretion, CD8 T cells, at 0.0001 µM: 104000 pg/mL
- IFNγ secretion, CD8 T cells, at 0.001 µM: 113000 pg/mL
- IFNγ secretion, CD8 T cells, at 0.01 µM: 131000 pg/mL
- IFNγ secretion, CD8 T cells, at 0.1 µM: 144000 pg/mL
- IFNγ secretion, CD8 T cells, at 1 µM: 166000 pg/mL
- IFNγ secretion, CD8 T cells, at 10 µM: 157000 pg/mL
- IFNγ secretion, CD8 T cells, at 100 µM: 148000 pg/mL
- IL-1β secretion, LPS treated monocytes, at 0 µM: 6240 pg/mL
- IL-1β secretion, LPS treated monocytes, at 0 µM (LPS only): 6880 pg/mL
- IL-1β secretion, LPS treated monocytes, at 0.0001 µM: 6290 pg/mL
- IL-1β secretion, LPS treated monocytes, at 0.001 µM: 5570 pg/mL
- IL-1β secretion, LPS treated monocytes, at 0.01 µM: 5260 pg/mL
- IL-1β secretion, LPS treated monocytes, at 0.1 µM: 4020 pg/mL
- IL-1β secretion, LPS treated monocytes, at 1 µM: 3660 pg/mL
- IL-1β secretion, LPS treated monocytes, at 10 µM: 4140 pg/mL
- IL-1β secretion, LPS treated monocytes, at 100 µM: 6480 pg/mL
- IL-9 secretion, CD8 T cells, at 0 µM: 1350 pg/mL
- IL-9 secretion, CD8 T cells, at 0.0001 µM: 1060 pg/mL
- IL-9 secretion, CD8 T cells, at 0.001 µM: 1120 pg/mL
- IL-9 secretion, CD8 T cells, at 0.01 µM: 1160 pg/mL
- IL-9 secretion, CD8 T cells, at 0.1 µM: 1420 pg/mL
- IL-9 secretion, CD8 T cells, at 1 µM: 1780 pg/mL
- IL-9 secretion, CD8 T cells, at 10 µM: 2150 pg/mL
- IL-9 secretion, CD8 T cells, at 100 µM: 1930 pg/mL

B2: hIL10Ra_VHH14 - hIL2Rg_VHH19, linker GGGS, tag his (bispecific antibody, not shown: small tags and cut ends)
chain: B1 chain
- Granzyme A secretion, CD8 T cells, at 0 µM: 25200 pg/mL
- Granzyme A secretion, CD8 T cells, at 0.0001 µM: 19700 pg/mL
- Granzyme A secretion, CD8 T cells, at 0.001 µM: 20900 pg/mL
- Granzyme A secretion, CD8 T cells, at 0.01 µM: 22300 pg/mL
- Granzyme A secretion, CD8 T cells, at 0.1 µM: 23700 pg/mL
- Granzyme A secretion, CD8 T cells, at 1 µM: 26400 pg/mL
- Granzyme A secretion, CD8 T cells, at 10 µM: 26500 pg/mL
- Granzyme A secretion, CD8 T cells, at 100 µM: 27300 pg/mL
- Granzyme B secretion, CD8 T cells, at 0 µM: 77700 pg/mL
- Granzyme B secretion, CD8 T cells, at 0.0001 µM: 49300 pg/mL
- Granzyme B secretion, CD8 T cells, at 0.001 µM: 45600 pg/mL
- Granzyme B secretion, CD8 T cells, at 0.01 µM: 48100 pg/mL
- Granzyme B secretion, CD8 T cells, at 0.1 µM: 55300 pg/mL
- Granzyme B secretion, CD8 T cells, at 1 µM: 72700 pg/mL
- Granzyme B secretion, CD8 T cells, at 10 µM: 84700 pg/mL
- Granzyme B secretion, CD8 T cells, at 100 µM: 94600 pg/mL
- IFNγ secretion, CD8 T cells, at 0 µM: 122000 pg/mL
- IFNγ secretion, CD8 T cells, at 0.0001 µM: 96800 pg/mL
- IFNγ secretion, CD8 T cells, at 0.001 µM: 99600 pg/mL
- IFNγ secretion, CD8 T cells, at 0.01 µM: 107000 pg/mL
- IFNγ secretion, CD8 T cells, at 0.1 µM: 114000 pg/mL
- IFNγ secretion, CD8 T cells, at 1 µM: 130000 pg/mL
- IFNγ secretion, CD8 T cells, at 10 µM: 134000 pg/mL
- IFNγ secretion, CD8 T cells, at 100 µM: 134000 pg/mL
- IL-1β secretion, LPS treated monocytes, at 0 µM: 6240 pg/mL
- IL-1β secretion, LPS treated monocytes, at 0 µM (LPS only): 6880 pg/mL
- IL-1β secretion, LPS treated monocytes, at 0.0001 µM: 6420 pg/mL
- IL-1β secretion, LPS treated monocytes, at 0.001 µM: 6640 pg/mL
- IL-1β secretion, LPS treated monocytes, at 0.01 µM: 5760 pg/mL
- IL-1β secretion, LPS treated monocytes, at 0.1 µM: 6120 pg/mL
- IL-1β secretion, LPS treated monocytes, at 1 µM: 5350 pg/mL
- IL-1β secretion, LPS treated monocytes, at 10 µM: 5950 pg/mL
- IL-1β secretion, LPS treated monocytes, at 100 µM: 6580 pg/mL
- IL-9 secretion, CD8 T cells, at 0 µM: 1350 pg/mL
- IL-9 secretion, CD8 T cells, at 0.0001 µM: 941 pg/mL
- IL-9 secretion, CD8 T cells, at 0.001 µM: 1000 pg/mL
- IL-9 secretion, CD8 T cells, at 0.01 µM: 1120 pg/mL
- IL-9 secretion, CD8 T cells, at 0.1 µM: 1340 pg/mL
- IL-9 secretion, CD8 T cells, at 1 µM: 1400 pg/mL
- IL-9 secretion, CD8 T cells, at 10 µM: 1680 pg/mL
- IL-9 secretion, CD8 T cells, at 100 µM: 1710 pg/mL

From patent US20250163162A1
